Laboratory results reported in patent US20260209362A1 (VIB VZW, published 2026).

T1: biotinylated recombinant human IL-12Rβ2 (produced in-house) (human, UniProt Q99665 24-622, random biotinylated)
T1 construct: also called hIL-12RB2; hIL12RB2
T1 sequence: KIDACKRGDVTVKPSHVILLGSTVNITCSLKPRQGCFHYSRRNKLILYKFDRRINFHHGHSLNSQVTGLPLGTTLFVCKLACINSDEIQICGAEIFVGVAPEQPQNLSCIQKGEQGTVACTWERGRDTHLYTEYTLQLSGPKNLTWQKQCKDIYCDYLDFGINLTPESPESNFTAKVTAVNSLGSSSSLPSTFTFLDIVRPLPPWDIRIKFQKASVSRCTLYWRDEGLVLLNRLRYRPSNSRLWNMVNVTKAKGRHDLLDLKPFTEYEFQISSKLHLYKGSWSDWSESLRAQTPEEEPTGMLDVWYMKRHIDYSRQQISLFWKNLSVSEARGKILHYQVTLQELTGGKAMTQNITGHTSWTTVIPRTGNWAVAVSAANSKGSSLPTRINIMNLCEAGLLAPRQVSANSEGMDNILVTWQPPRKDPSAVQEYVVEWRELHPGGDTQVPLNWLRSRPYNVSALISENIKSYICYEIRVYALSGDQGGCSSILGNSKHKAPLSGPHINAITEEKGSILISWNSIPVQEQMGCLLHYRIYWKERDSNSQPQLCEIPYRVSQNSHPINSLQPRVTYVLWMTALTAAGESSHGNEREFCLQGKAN

T2: biotinylated recombinant mouse IL-12Rβ2 (produced in-house) (mouse, UniProt P97378 24-637, random biotinylated)
T2 construct: also called mIL-12RB2; mIL12RB2
T2 sequence: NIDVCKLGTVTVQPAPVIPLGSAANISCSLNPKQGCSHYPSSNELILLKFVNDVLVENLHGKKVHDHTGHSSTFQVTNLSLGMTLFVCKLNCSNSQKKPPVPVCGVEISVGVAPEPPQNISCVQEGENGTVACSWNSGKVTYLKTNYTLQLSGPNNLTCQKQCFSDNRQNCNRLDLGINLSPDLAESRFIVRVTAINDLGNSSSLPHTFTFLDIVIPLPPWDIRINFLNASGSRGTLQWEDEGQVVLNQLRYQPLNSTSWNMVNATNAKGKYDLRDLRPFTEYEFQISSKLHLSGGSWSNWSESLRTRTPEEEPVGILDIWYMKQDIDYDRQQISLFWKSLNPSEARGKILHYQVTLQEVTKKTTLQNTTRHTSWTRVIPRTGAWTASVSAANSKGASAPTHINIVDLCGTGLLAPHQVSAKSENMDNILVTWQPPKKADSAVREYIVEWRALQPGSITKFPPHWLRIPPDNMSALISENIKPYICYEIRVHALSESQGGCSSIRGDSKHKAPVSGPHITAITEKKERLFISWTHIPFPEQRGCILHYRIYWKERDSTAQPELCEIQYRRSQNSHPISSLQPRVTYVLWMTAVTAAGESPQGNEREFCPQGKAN

T3: human IL-12Rβ2 expressed on cells (human, UniProt Q99665 24-862)
T3 construct: HEK293T cells transiently transfected with a human IL-12Rβ2 plasmid (Genscript OHu21785); also called hIL-12RB2
T3 sequence: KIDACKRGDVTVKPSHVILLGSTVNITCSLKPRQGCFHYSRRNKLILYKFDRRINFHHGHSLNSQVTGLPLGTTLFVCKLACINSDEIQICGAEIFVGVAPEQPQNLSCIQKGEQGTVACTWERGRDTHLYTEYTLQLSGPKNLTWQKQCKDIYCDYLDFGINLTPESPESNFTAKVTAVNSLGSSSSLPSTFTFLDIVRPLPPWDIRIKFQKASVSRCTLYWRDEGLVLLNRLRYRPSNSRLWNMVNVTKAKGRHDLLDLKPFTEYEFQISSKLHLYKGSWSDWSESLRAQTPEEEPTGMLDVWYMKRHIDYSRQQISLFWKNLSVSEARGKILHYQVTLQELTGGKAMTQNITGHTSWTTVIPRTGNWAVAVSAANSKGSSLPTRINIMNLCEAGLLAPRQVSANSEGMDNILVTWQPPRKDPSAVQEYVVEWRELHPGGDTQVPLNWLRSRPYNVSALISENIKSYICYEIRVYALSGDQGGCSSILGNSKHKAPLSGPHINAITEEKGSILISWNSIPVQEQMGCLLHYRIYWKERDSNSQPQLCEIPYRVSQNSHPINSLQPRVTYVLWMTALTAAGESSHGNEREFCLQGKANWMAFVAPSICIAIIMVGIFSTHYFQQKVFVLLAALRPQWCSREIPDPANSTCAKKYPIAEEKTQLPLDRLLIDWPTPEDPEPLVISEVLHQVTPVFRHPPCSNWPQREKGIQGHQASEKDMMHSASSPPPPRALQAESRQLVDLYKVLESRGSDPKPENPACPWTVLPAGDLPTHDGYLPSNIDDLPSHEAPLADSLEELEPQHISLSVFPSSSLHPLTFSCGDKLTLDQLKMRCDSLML

T4: biotinylated human recombinant IL-12Rβ2 (produced in-house) (human, UniProt Q99665 24-622, random biotinylated)
T4 construct: Soluble recombinant protein used for panning, ELISA and BLI; also called hIL-12RB2; hIL12RB2
T4 sequence: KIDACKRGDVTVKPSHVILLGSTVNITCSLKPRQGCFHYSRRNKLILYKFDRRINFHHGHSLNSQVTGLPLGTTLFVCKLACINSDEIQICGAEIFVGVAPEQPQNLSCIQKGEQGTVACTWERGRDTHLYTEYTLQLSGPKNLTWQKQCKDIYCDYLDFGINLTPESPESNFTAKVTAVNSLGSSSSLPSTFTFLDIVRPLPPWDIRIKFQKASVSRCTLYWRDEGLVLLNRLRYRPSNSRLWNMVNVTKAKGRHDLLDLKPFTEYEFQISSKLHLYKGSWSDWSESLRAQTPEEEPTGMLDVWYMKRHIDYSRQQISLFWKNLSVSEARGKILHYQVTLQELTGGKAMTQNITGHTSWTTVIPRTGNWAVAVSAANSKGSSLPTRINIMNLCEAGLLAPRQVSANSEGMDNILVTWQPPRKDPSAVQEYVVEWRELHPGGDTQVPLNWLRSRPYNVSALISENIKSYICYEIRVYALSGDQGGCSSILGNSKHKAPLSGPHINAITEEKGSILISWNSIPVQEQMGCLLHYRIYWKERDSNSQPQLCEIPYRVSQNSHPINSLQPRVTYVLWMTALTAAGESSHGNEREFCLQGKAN

T5: biotinylated mouse recombinant IL-12Rβ2 (produced in-house) (mouse, UniProt P97378 24-637, random biotinylated)
T5 construct: Soluble recombinant protein used for panning, ELISA and BLI; also called mIL-12RB2; mIL12RB2
T5 sequence: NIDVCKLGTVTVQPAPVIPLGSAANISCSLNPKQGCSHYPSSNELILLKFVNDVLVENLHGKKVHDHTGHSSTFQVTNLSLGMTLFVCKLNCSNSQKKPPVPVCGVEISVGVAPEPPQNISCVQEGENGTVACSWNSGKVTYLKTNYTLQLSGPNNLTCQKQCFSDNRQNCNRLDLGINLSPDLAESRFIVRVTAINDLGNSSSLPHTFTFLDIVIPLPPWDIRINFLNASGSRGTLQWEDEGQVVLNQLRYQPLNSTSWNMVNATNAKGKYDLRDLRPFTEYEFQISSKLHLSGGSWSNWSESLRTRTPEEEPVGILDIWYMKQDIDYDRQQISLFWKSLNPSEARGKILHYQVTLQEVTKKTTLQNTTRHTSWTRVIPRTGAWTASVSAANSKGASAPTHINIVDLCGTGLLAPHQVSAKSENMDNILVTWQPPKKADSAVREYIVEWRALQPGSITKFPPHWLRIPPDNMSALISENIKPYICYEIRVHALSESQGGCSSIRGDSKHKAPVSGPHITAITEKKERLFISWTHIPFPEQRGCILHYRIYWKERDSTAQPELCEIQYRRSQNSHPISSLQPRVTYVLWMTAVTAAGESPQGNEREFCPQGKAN

T6: human IL-12Rβ2 expressed on cells (human, UniProt Q99665 24-862)
T6 construct: the cell lines are described by plasmid or cDNA number only; also called hIL-12RB2; HEK293T transiently transfected with human IL-12Rβ2
T6 sequence: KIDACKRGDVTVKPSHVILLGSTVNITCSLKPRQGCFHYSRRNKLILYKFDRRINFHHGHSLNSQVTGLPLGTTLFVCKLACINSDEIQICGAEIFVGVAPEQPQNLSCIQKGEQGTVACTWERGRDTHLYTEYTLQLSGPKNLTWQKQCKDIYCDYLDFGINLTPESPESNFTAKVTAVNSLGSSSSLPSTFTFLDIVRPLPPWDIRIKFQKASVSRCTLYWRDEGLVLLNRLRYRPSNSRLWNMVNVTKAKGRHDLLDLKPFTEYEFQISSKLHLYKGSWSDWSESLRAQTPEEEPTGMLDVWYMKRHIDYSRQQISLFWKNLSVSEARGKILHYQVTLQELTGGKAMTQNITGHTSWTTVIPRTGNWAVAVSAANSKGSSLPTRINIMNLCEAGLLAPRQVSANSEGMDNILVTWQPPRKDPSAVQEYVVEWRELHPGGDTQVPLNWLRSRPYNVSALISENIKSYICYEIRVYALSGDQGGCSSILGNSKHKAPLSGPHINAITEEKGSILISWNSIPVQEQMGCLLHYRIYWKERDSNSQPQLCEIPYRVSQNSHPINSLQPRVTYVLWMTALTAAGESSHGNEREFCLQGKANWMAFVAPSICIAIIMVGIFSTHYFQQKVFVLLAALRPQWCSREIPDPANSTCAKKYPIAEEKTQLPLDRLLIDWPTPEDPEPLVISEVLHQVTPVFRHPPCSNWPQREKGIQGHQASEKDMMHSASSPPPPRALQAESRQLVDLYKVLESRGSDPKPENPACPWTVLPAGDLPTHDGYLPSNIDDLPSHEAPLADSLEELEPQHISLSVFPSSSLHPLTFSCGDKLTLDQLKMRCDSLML

B1: anti-IL-12Rβ2 VHH clone 3CRHS54 (VHH, not shown: small tags and cut ends)
VHH: QVQLQESGGGLVQPGGSLRLSCTASGSIVSIYNMDWYRQAPGNEREWVASITSSGDPYYDGSAKGRFTISRDNAKMTVYLQMNSLEPEDTAVYFCKVPTEKGNYWGQGTQVTVSS
notes: tested as periplasmic extract; also called 3CRHSS4
B2: anti-IL-12Rβ2 VHH clone 3CRHS9 (VHH, not shown: small tags and cut ends)
VHH: QVQLQESGGGLVQPGGSLRLSCTASGSIVSIYNMDWYRQAPGNEREWVASITSSGDPYYDGSAKGRFTISRDNAKMTVYLQMNSLKPEDTAVYYCKVPTEKGNYWGQGTQVTVSS
notes: tested as periplasmic extract
B3: anti-IL-12Rβ2 VHH clone 3CRHS51 (VHH, not shown: small tags and cut ends)
VHH: QVQLQESGGGLVQPGGSLRLSCAASGFTFSTYAMSWVRQAPGKGLEWVSAVNSGGLSTDYADSVEGRFTISRDDAKNMLFLQMNRLKPEDTARYYCAKYEDCSDYVCDRAGYWGQGTQVTVSS
notes: tested as periplasmic extract; also called 3CRASS1
B4: anti-IL-12Rβ2 VHH clone 3CAHS142 (clone ID 20401) (VHH)
VHH: QVQLQESGGGLVQAGESLTLSCIASGVIKDYAMGWFRQAPGKEREFVAAISWSGVSIYYADSVKGRFTISRDNAKNTVYLQMNSLEPEDTAVYYCAGTEGAYTVAGGSTFGYDMDYWGKGTQVTVSS
notes: Tested as periplasmic extract; not shown: C-terminal HA tag
B5: anti-IL-12Rβ2 VHH clone 3CRHS163 (clone ID 20438) (VHH)
VHH: QVQLQESGGGLVQPGGSLRLSCTASGFAFSTYWMYWIRQSPEKGFEWVSVVNTGGDITYYADSVKGRFTISRDNAKNTLYLQMNSLKPEDTALYYCARDRTTMSYTRTYYRGGQGTQVTVSS
notes: Tested as periplasmic extract; also called 3CANS142; not shown: C-terminal HA tag

What was measured:
[1] = molecular target: T1, biotinylated recombinant human IL-12Rβ2 …; assay: BLI (Octet), P.E. VHH on immobilised biotinylated hIL-12RB2
[2] = molecular target: T2, biotinylated recombinant mouse IL-12Rβ2 …; assay: ELISA, P.E. VHH on biotinylated mIL-12RB2
[3] = molecular target: T2, biotinylated recombinant mouse IL-12Rβ2 …; assay: ELISA, P.E. VHH on biotinylated mIL-12RB2, signal ratio to control well
[4] = molecular target: T1, biotinylated recombinant human IL-12Rβ2 …; assay: ELISA, P.E. VHH on biotinylated hIL-12RB2, signal ratio to control well
[5] = molecular target: T1, biotinylated recombinant human IL-12Rβ2 …; assay: BLI (Octet), P.E. VHH on immobilised biotinylated hIL-12RB2, 1:1 model
[6] = molecular target: T3, human IL-12Rβ2 expressed on cells; assay: flow cytometry, P.E. VHH on HEK293T cells transiently expressing hIL-12RB2
[7] = molecular target: T4, biotinylated human recombinant IL-12Rβ2 …; assay: BLI (Octet Red), periplasmic extract on biotinylated human IL-12Rβ2 on streptavidin tips, 1:1 model
[8] = molecular target: T5, biotinylated mouse recombinant IL-12Rβ2 …; assay: ELISA, periplasmic extract on biotinylated mouse IL-12Rβ2; signal over streptavidin control well
[9] = molecular target: T4, biotinylated human recombinant IL-12Rβ2 …; assay: BLI (Octet Red), periplasmic extract on biotinylated human IL-12Rβ2 on streptavidin tips
[10] = molecular target: T4, biotinylated human recombinant IL-12Rβ2 …; assay: ELISA, periplasmic extract on biotinylated human IL-12Rβ2; signal over streptavidin control well
[11] = molecular target: T6, human IL-12Rβ2 expressed on cells; assay: flow cytometry, periplasmic extract VHH-HA on HEK293T cells transiently expressing human IL-12Rβ2
[12] = molecular target: T5, biotinylated mouse recombinant IL-12Rβ2 …; assay: ELISA, periplasmic extract on biotinylated mouse IL-12Rβ2

| Binder | Response [1] | binding result [2] | ELISA mIL12RB2/control [3] | ELISA hIL12RB2/control [4] | koff [5] | dMFI [6] | koff [7] | mIL12RB2/control (ELISA) [8] | Response [9] | hIL12RB2/control (ELISA) [10] | % cells bound [11] | dMFI [11] | binding result [12] |
| --- | --- | --- | --- | --- | --- | --- | --- | --- | --- | --- | --- | --- | --- |
| B1 | 0.203 | no binding | 1.26 | 7.85 | 0.00272 s⁻¹ | 870 |  |  |  |  |  |  |  |
| B2 | 0.222 | no binding | 1.09 | 5.08 | 0.0034 s⁻¹ | 941 |  |  |  |  |  |  |  |
| B3 | 0.327 | no binding |  |  | 0.0043 s⁻¹ | 1140 |  |  |  |  |  |  |  |
| B4 |  |  |  |  |  |  | 0.00324 s⁻¹ | 1.07 ratio | 0.352 | 4.98 ratio | 40.9% | 812 | no binding |
| B5 |  |  |  |  |  |  | 0.00302 s⁻¹ | 0.93 ratio | 0.339 | 3.58 ratio | 43.7% | 1050 | no binding |
